Usually Kd stands for the free concentration of one partner at which half of the binding sites on the other are occupied at equilibrium, for simple one-to-one binding. Low values mean higher affinity, high ones lower affinity. In general, koff refers to the rate constant with which the complex falls apart. The term kon denotes a measure of how fast the partners come together. A low value points to slow association.

Common to all, as to assay: SPR (Biacore), 1:1 binding fit
Assay [1] has as its target T1, RBD突变型(K417T E484K N501Y) (SARS-CoV-2, UniProt P0DTC2 319-541).
T1 construct: domain: RBD

In the next assay the target is T2, RBD突变型(N501Y) (SARS-CoV-2, UniProt P0DTC2 319-541).
T2 construct: domain: RBD

The target in assay [2] is T3, RBD突变型(K417N E484K N501Y) (SARS-CoV-2, UniProt P0DTC2 319-541).
T3 construct: domain: RBD

B1: 人源化新冠病毒中和性抗体nCoV-00D (antibody, V domains shown)
VH: QVQLQQSGAELVKPGASVKLSCKTSGYTFTRYYIYWVKQRPGQGLEWIGEINPNNGGTNFNEKFKSKATLTVDKSSNTAYMQLSSLTSEDSAVYYCTIFITTVIARDYWGQGTLVTVSA
VL: DIVLTQSPASLAVSLGQRATISCRASESVEYSGTTLMQWFQQKPGQPPKLLIYAASNVESGVPARFSGSGSGTDFSLNIHPVEEDDVAMYFCHQSREVPWTFGGGTKLEIKR
notes: also called nCoV-00D抗体
In the case of B1, in assay [1], the affinity, expressed as Kd, was 0.53 pM; the koff amounted to 1.98e-08 s⁻¹; the kon turned out to be 37400 M⁻¹ s⁻¹. In the assay with RBD突变型(N501Y), this molecule showed a dissociation constant (Kd) of 0.246 pM, a koff of 9.51e-08 s⁻¹ and a kon of 387000 M⁻¹ s⁻¹. In assay [2], this molecule gave an equilibrium dissociation constant (Kd) of 7.91 pM, an off-rate constant (koff) of 2.35e-07 s⁻¹ and a kon of 29700 M⁻¹ s⁻¹.

The values are drawn from patent publication CN113461812A (BEIJING LUFEI BIOTECHNOLOGY CO LTD, dated 2021).
